Test results as given in article PMC2935283, “Molecular recognition between Escherichia coli enolase and ribonuclease E” (Acta Crystallographica Section D: Biological Crystallography, 2010).

Target: the molecule itself
Assay: native MS; enolase mixed with the microdomain in a 1:1.5 molar ratio, room temperature, 20 min; nanoflow ESI, tandem nondissociating QTOF-MS/MS

B1: Escherichia coli enolase (enzyme, E. coli)
chain: MSKIVKIIGREIIDSRGNPTVEAEVHLEGGFVGMAAAPSGASTGSREALELRDGDKSRFLGKGVTKAVAAVNGPIAQALIGKDAKDQAGIDKIMIDLDGTENKSKFGANAILAVSLANAKAAAAAKGMPLYEHIAELNGTPGKYSMPVPMMNIINGGEHADNNVDIQEFMIQPVGAKTVKEAIRMGSEVFHHLAKVLKAKGMNTAVGDEGGYAPNLGSNAEALAVIAEAVKAAGYELGKDITLAMDCAASEFYKDGKYVLAGEGNKAFTSEEFTHFLEELTKQYPIVSIEDGLDESDWDGFAYQTKVLGDKIQLVGDDLFVTNTKILKEGIEKGIANSILIKFNQIGSLTETLAAIKMAKDAGYTAVISHRSGETEDATIADLAVGTAAGQIKTGSMSRSDRVAKYNQLIRIEEALGEKAPYNGRKEIKGQA
notes: enolase (EC 4.2.1.11), E. coli; overexpressed from pET11a; Purified as described in Kuhnel & Luisi, 2001; Homodimer in the crystal and by nondissociating mass spectrometry; also called enolase dimer; dimeric enolase; source: E. coli BL21 (DE3), pET11a vector, purified
**Q.** For B1, which “stoichiometry N” value is on record?
**A.** 2
